Patent publication CN118005785A (BEILAI PHARMACEUTICAL CO LTD, dated 2024)

Columns and labels:
[1] = molecular target: T1, Human IL-17A重组蛋白 (IL-17A-His) (human, UniProt Q16552 24-155, limits assumed, biotinylated in the ELISA of paragraph 276 (Biotin-IL-17A-His); site not stated); experiment: cell-based or functional assay
T1 sequence: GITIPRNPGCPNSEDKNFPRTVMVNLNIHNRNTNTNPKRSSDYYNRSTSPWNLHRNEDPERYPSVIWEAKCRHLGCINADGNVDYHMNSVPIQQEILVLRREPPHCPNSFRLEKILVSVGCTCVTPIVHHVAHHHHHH

[2] = molecular target: T1, Human IL-17A重组蛋白 (IL-17A-His); experiment: ELISA, antibody coated at 2 ug/mL, Biotin-IL-17A-His titrated from 10 ug/mL, HRP-Streptavidin detection
[3] = molecular target: T1, Human IL-17A重组蛋白 (IL-17A-His); experiment: BLI, ForteBio OCTET R2, IL-17A-His immobilised on the sensor at 5 ug/mL, antibody 50-3.13 nM, 25℃

B1: Ixekizumab (antibody, human IgG4 S228P, kappa, V domains shown)
VH: QVQLVQSGAEVKKPGSSVKVSCKASGYSFTDYHIHWVRQAPGQGLEWMGVINPMYGTTDYNQRFKGRVTITADESTSTAYMELSSLRSEDTAVYYCARYDYFTGTGVYWGQGTLVTVSS
VL: DIVMTQTPLSLSVTPGQPASISCRSSRSLVHSRGNTYLHWYLQKPGQSPQLLIYKVSNRFIGVPDRFSGSGSGTDFTLKISRVEAEDVGVYYCSQSTHLPFTFGQGTKLEIKR
notes: Made in-house in 293F cells from the synthesised variable regions cloned into hIgG4 and hIgKc vectors; purified on Protein A; also called 阳性对照抗体Ixekizumab; 阳性抗体
Question: For B1, which “IC50, luciferase activity of 293F-IL-17RA-IL-17Rc-ACT1-NFκB-Luc reporter cells stimulated with 0.1 μg/mL IL-17A” value [1] is on record?
Answer: 2.23 nM

Question: And the EC50 [2]?
Answer: 10.1 mg/L

Question: What about the Kd [3] of the same binder?
Answer: 0.391 nM
